Experimental data published in patent US20150344583A1 (Amgen, published 2015).
Read-outs that look alike come from different tables or passages of the source.

T1: human BCMA (huBCMA) on cells (human, UniProt Q02223 1-184)
T1 construct: endogenous on H929, JD38 and other myeloma and B-cell lines and on patient plasma cells; also called native human BCMA
T1 chain: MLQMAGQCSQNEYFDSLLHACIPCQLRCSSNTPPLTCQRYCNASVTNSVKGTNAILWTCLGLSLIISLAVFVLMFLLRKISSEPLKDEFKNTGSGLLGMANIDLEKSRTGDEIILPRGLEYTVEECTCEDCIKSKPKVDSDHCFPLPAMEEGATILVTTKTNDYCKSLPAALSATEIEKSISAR

T2: TACI on transiently transfected cells (human, UniProt O14836 1-293)
T2 construct: whole, on cells; also called huTACI
T2 sequence (looked up): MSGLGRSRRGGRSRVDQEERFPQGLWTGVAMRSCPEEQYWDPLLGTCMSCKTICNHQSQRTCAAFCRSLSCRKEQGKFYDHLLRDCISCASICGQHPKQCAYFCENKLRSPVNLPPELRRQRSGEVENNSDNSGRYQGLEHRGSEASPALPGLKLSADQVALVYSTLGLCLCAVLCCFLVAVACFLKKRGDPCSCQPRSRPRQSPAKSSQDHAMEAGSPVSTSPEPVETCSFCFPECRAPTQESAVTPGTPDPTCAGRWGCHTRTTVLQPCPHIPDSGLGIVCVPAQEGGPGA

T3: rhuBCMA fusion protein (6xHis::Sumo::huBCMA(aa 5-51)::GGS::G3::Avi) (human)
T3 construct: the preparation also held C-terminally clipped forms; also called Sumo-BCMA; SumoBCMA
T3 chain: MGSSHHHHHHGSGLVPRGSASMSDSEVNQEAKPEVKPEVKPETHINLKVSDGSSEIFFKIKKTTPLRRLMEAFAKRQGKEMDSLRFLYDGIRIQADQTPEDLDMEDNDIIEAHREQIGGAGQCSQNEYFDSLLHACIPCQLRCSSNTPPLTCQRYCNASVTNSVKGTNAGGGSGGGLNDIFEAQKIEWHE

T4: rrat BCMA fusion protein (GS::6xHis::Sumo::ratBCMA(aa 2-49)::GGS::G3::Avi) (rat)
T4 chain: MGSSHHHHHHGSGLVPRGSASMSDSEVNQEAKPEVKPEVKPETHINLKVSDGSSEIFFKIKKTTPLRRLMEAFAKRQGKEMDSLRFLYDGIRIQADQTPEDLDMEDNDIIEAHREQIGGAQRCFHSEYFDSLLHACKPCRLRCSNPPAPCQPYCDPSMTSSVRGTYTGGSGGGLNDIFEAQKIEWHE

B1: 30E1 (antibody, V domains shown)
VH: EVQLLESGGGLVQPGGSLRLSCAASGFTFSSHAMSWVRQAPGKGLEWVSAISGGDGNTYYADSVKGRFAISRDNSKNVVYLQMNSLRAEDTAVYFCAKDLVGVVAGYYYYFGMDVWGQGTTVTVSS
VL: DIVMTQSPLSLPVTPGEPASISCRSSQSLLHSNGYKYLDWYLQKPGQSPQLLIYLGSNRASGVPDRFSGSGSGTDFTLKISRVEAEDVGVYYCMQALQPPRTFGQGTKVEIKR
notes: IgG2 or IgG4, purified from hybridoma supernatant; also called 30E1.1; Ab-9
B2: 2A1-PEG4-Mal-DM4 (antibody, V domains shown)
VH: EVQLVESGGGLVKPGRSLRLSCTASGFTFGDYALSWFRQAPGKGLEWVGVSRSKAYGGTTDYAASVKGRFTISRDDSKSFAYLQMNSLKTEDTAVYYCCSSGYSSGWTPFDYWGQGTLVTVSS
VL: not shown
modifications: PEG4-Mal-DM4 conjugated, sites not stated
B3: 2A1-MCC-DM1 (antibody, V domains shown)
VH: EVQLVESGGGLVKPGRSLRLSCTASGFTFGDYALSWFRQAPGKGLEWVGVSRSKAYGGTTDYAASVKGRFTISRDDSKSFAYLQMNSLKTEDTAVYYCCSSGYSSGWTPFDYWGQGTLVTVSS
VL: not shown
modifications: MCC-DM1 conjugated, sites not stated
B4: 2A1CV5-MCC-DM1 (Ab-1 ADC) (antibody, human IgG1, lambda, V domains shown)
VH: EVQLVESGGGLVKPGGSLRLSCAASGFTFGDYALSWFRQAPGKGLEWVGVSRSKAYGGTTDYAASVKGRFTISRDDSKSTAYLQMNSLKTEDTAVYYCASSGYSSGWTPFDYWGQGTLVTVSS
VL: not shown
modifications: MCC-DM1 conjugated, sites not stated
B5: 2A1-S108R (antibody, V domains shown)
VH: EVQLVESGGGLVKPGRSLRLSCTASGFTFGDYALSWFRQAPGKGLEWVGVSRSKAYGGTTDYAASVKGRFTISRDDSKSFAYLQMNSLKTEDTAVYYCCRSGYSSGWTPFDYWGQGTLVTVSS
VL: not shown
B6: 32H3 (antibody, V domains shown)
VH: EVQLLESGGGLVQPGGSLRLSCAASGFTFSSYAMSWVRQAPGKGLKWVSAISGGAGNTYYADSVKGRFTISRDISKSTVYLQMTSLRAEDTAIYYCAKDGVGTTGGYFYYHGMDVWGQGTTVTVSS
VL: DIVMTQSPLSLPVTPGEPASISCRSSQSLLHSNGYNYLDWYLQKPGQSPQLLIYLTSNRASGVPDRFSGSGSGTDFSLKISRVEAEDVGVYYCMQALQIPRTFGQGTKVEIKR
notes: IgG2 or IgG4, purified from hybridoma supernatant; also called 32H3.1; Ab-12
B7: 1E1-PEG4-Mal-DM4 (antibody, V domains shown)
VH: QVQLVQSGAEVKKPGASVKVSCKASGYTFTGHYIHWVRQAPGQGLEWMGWIYPNSGGTNYAQKFQGRVTMTRDTSISTAYMELSRLRSDDSAVYYCAREGMVTGDYYYYRMDVWGQGTTVIVSS
VL: QPVLTQPPSASASLGASVTLTCSLSSGYSNYKVDWYQQRPGKGPRFVMRVGIGGIVGSKGDGIPDRFSVLGSGLNRYLTIKNIQEEDESDFHCGADHGSGNNFVYVFGTGTKVTVLG
B8: 1E1-MCC-DM1 (antibody, V domains shown)
VH: QVQLVQSGAEVKKPGASVKVSCKASGYTFTGHYIHWVRQAPGQGLEWMGWIYPNSGGTNYAQKFQGRVTMTRDTSISTAYMELSRLRSDDSAVYYCAREGMVTGDYYYYRMDVWGQGTTVIVSS
VL: QPVLTQPPSASASLGASVTLTCSLSSGYSNYKVDWYQQRPGKGPRFVMRVGIGGIVGSKGDGIPDRFSVLGSGLNRYLTIKNIQEEDESDFHCGADHGSGNNFVYVFGTGTKVTVLG
B9: 29C12-MCC-DM1 (antibody, V domains shown)
VH: EVQLLESGGALVQPGGSLRLSCAASGFTFSSYAMNWVRQAPGKGLEWVSAISVGGDTYYADSVKGRFTISRDNSKNTLYLQMNSLRAEDTAVYYCAKDQVTMVRGVWYYYGLDVWGQGTTVTVSS
VL: DIVMIQSPLSLPVTPGEPASISCRSSQSLLHSNGNNYLDWYLQKPGQSPHLLISLGSNRTSGVPDRFSGSGSGTDFTLKISRVEAEDVGVYYCMQALQPPRRFGQGTKLEIKR
B10: 35D2 (antibody, V domains shown)
VH: EVQLLESGGALVQPGGSLRLSCAASGFTFSSYAMNWVRQAPGKGLEWVSAISVGGGTYYADSVKGRFTISRDNSKNTLYLHVNSLRAEDTAVYYCAKDQVTMVRGVWYYYGLDVWGQGTTVTVSS
VL: VIVLIQSPLSLPVTPGEPASISCRSSQSLLHSNGNNYLDWYLQKPGQSPHLLISLGSNRTSGVPDRFSGSGSGTDFTLKISRVEAEDVGFYYCMQALQPPRRFGQGTKLEIKR
notes: IgG2 or IgG4, purified from hybridoma supernatant; also called 35D2.1; Ab-15
B11: Ab-2 (29C12_mut) (antibody, human IgG1, kappa, V domains shown)
VH: EVQLLESGGGLVQPGGSLRLSCAASGFTFSSYAMNWVRQAPGKGLEWVSAISVGGDTYYADSVKGRFTISRDNSKNTLYLQMNSLRAEDTAVYYCAKDQVTMVRGVWYYYGLDVWGQGTTVTVSS
VL: DIVMTQSPLSLPVTPGEPASISCRSSQSLLHSNGNNYLDWYLQKPGQSPHLLISLGSQRTSGVPDRFSGSGSGTDFTLKISRVEAEDVGVYYCMQALQPPRRFGQGTKLEIKR
notes: Human IgG1; also called 29C12 CV2; 29C12cv2
B12: 32B5 (antibody, V domains shown)
VH: EVQLLESGGALVQPGGSLRLSCAASGFTFSSYAMNWVRQAPGKGLEWVSAISVGGDTYYADSVKGRFTISRDNSKNTLYLHVNSLSAEDSAVYYCAKDQVTLVRGVWYYYGLDVWGQGTTVTVSS
VL: VIVLIQSPLSLPVTPGEPASISCRSSQSLLHSNGNNYLDWYLQKPGQSPHLLISLGSNRTSGVPDRFSGSGSGTDFTLKISRVEAEDVGFYYCMQALQPPRRFGQGTKLEIKR
notes: IgG2 or IgG4 as purified from hybridoma (32B5.1); later converted to human IgG1; an engineered version may be meant there; also called 32B5.1; Ab-10
B13: 29C12 (antibody, V domains shown)
VH: EVQLLESGGALVQPGGSLRLSCAASGFTFSSYAMNWVRQAPGKGLEWVSAISVGGDTYYADSVKGRFTISRDNSKNTLYLQMNSLRAEDTAVYYCAKDQVTMVRGVWYYYGLDVWGQGTTVTVSS
VL: DIVMIQSPLSLPVTPGEPASISCRSSQSLLHSNGNNYLDWYLQKPGQSPHLLISLGSNRTSGVPDRFSGSGSGTDFTLKISRVEAEDVGVYYCMQALQPPRRFGQGTKLEIKR
notes: IgG2 or IgG4 as purified from hybridoma (29C12.1); later converted to human IgG1; an engineered version may be meant there; also called 29C12.1; Ab-8
B14: 37B2 (antibody, V domains shown)
VH: EVQLLESGGALVQPGGSLRLSCAASGFTFSNYAMNWVRQAPGKGLEWVSAISVGGDTYYADSVKGRFTISRDNSKNTLYLHVNSLSAEDSAVYYCAKDQVTLVRGVWYYYGLDVWGQGTTVTVSS
VL: VIVLIQSPLSLPVTPGEPASISCRSSQSLLHSNGNNYLDWYLQKPGQSPHLLISLGSNRTSGVPDRFSGSGSGTDFTLKISRVEAEDVGFYYCMQALQPPRRFGQGTKLEIKR
notes: IgG2 or IgG4, purified from hybridoma supernatant; also called 37B2.1; Ab-16
B15: Ab-3 (32B5_mut) (antibody, human IgG1, kappa, V domains shown)
VH: EVQLLESGGGLVQPGGSLRLSCAASGFTFSSYAMNWVRQAPGKGLEWVSAISVGGDTYYADSVKGRFTISRDNSKNTLYLQVNSLRAEDSAVYYCAKDQVTLVRGVWYYYGLDVWGQGTTVTVSS
VL: DIVLTQSPLSLPVTPGEPASISCRSSQSLLHSNGNNYLDWYLQKPGQSPHLLISLGSQRTSGVPDRFSGSGSGTDFTLKISRVEAEDVGVYYCMQALQPPRRFGQGTKLEIKR
notes: Human IgG1; also called 32B5 CV2; 32B5cv2

How the values were obtained:
[1] = biological target: T1, human BCMA (huBCMA) on cells; assay: FACS, hu BCMA
[2] = biological target: T2, TACI on transiently transfected cells; assay: FACS, hu TACI
[3] = biological target: T5, cynomolgus (Macaca fascicularis) BCMA on cells (cynomolgus (Macaca fascicularis), UniProt Q02223 1-184 (human entry)); assay: FACS, Cyno BCMA
T5 construct: also called cyno BCMA; cynomolgus BCMA
T5 sequence (Q02223 other isoform, or with tags, fused parts or gaps): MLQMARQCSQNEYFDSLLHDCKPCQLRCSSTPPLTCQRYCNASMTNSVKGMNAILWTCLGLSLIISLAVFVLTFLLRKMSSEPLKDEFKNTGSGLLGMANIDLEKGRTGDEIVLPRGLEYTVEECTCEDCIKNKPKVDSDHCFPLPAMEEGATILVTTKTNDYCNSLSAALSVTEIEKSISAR

[4] = biological target: T5, cynomolgus (Macaca fascicularis) BCMA …; assay: CynoBCMA O/N FACS
[5] = biological target: T1, human BCMA (huBCMA) on cells; assay: cell-based or functional assay
[6] = biological target: T1, human BCMA (huBCMA) on cells; assay: cell-based or functional assay
[7] = biological target: T1, human BCMA (huBCMA) on cells; assay: FACS, H929 cells
[8] = biological target: T3, rhuBCMA fusion protein …; assay: Biacore, antibody captured, rhu BCMA analyte
[9] = biological target: T4, rrat BCMA fusion protein …; assay: Biacore, antibody captured, rrat BCMA analyte
[10] = biological target: T3, rhuBCMA fusion protein …; assay: Biacore, antibody captured, rhu BCMA analyte
[11] = biological target: T4, rrat BCMA fusion protein …; assay: Biacore, antibody captured, rrat BCMA analyte

Binder	MFI [1] [MFI]	MFI [2] [MFI]	MFI [3] [MFI]	MFI [4] [MFI]	further results
B1	109000	555	78500	130	
B2					IC50, CellTiter-Glo cell viability, H929 cells, 96 h [5]: 2.2 nM
B3					IC50 (nM DM1), cell viability, EW36 [5]: 30 nM DM1; IC50 (nM DM1), cell viability, H929 [5]: 0.6 nM DM1; IC50 (nM DM1), cell viability, MM1R [5]: 3.9 nM DM1; IC50 (nM DM1), cell viability, MM1S [5]: 1 nM DM1; IC50 (nM DM1), cell viability, RAMOS [5]: 32 nM DM1; IC50 (nM DM1), cell viability, U266 [5]: 0.8 nM DM1; IC50, CellTiter-Glo cell viability, H929 cells, 96 h [5]: 2.4 nM
B4					IC50 in an H929 tumor cell growth inhibition assay (antibody concentration) [5]: ~0.078 nM
B5					ADCC EC50 [6]: 0.043 µg/mL; EC50 (read off the curve) [7]: ~0.2 µg/mL
B6	97700	1360	51200	122	
B7					IC50, CellTiter-Glo cell viability, H929 cells, 96 h [5]: 0.68 nM
B8					IC50, CellTiter-Glo cell viability, H929 cells, 96 h [5]: 0.63 nM
B9					IC50, H929 cell growth (CellTiter-Glo, 96 h) [5]: 0.39 nM
B10	129000	506	198000	152	
B11					Kd [8]: 1.11 nM; Kd [9]: 2.35 nM
B12	137000	274	257000	108	
B13	82600	256	97300	110	
B14	83700	1040	136000	104	
B15					Kd [10]: 0.75 nM; Kd [11]: 2.07 nM
